Test [1] addresses T1, CAPRIN-1 protein expressed on the cell surface of human cancer cells (human, UniProt Q14444 2-709).
T1 sequence (looked up): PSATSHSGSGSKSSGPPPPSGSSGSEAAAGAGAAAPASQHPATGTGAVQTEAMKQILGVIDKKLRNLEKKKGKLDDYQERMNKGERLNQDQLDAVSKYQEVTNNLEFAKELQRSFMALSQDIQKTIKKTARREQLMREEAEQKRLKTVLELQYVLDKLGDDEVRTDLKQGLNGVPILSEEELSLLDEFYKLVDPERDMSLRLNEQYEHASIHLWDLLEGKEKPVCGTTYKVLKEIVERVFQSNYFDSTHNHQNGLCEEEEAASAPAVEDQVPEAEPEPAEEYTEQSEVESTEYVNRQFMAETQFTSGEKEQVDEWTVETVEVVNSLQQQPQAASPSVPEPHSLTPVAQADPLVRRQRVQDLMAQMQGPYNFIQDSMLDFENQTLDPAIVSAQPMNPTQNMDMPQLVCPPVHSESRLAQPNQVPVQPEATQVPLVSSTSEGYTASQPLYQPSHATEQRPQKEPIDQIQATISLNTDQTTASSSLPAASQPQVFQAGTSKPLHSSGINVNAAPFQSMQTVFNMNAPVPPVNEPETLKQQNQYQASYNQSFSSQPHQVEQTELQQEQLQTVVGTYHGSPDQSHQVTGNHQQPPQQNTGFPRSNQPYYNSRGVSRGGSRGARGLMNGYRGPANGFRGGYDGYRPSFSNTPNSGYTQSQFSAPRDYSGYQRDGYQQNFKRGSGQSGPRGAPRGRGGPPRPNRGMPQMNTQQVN
Kind of test: cell-based or functional assay.

The target in test [2] is T2, polypeptide set forth in SEQ ID NO: 266 (human).
T2 construct: Identified from ELISA on 93 synthetic peptides of 12 to 16 amino acids of human CAPRIN-1
T2 peptide: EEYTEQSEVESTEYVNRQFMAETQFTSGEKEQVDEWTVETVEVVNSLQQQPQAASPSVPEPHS
Nature of the test: ELISA on immobilized synthetic CAPRIN-1 peptides, culture supernatant. A general note: ELISA stands for enzyme-linked immunosorbent assay.

In test [3] the target is T3, peptide set forth in SEQ ID NO: 268 (human).
T3 peptide: FTSGEKEQVDEW
The description is as above.

For test [4], the target named is T1, CAPRIN-1 protein expressed on the cell …. Nature of the test: flow cytometry, TGBC14TKB cells, culture supernatant, isotype control antibody as control. A general note: Flow cytometry measures light scatter and fluorescence of single cells or particles in a stream.
Test [5] addresses T4, polypeptide set forth in SEQ ID NO: 430 (human).
T4 peptide: ATQVPLVSSTSEGYTA
Nature of the test: ELISA on 93 immobilized synthetic peptides of human CAPRIN-1, purified antibody 0.1 ug/mL. The protocol:
Candidate peptides (93 peptides) each consisting of 12 to 16 amino acids of the amino acid sequence of the human CAPRIN-1 protein were synthesized and were each dissolved at a concentration of 1 mg/mL in DMSO. Each peptide was dissolved at a concentration of 30 μg/mL in a 0.1 M sodium carbonate buffer (pH 9.6). The solution was added to a 96-well plate (manufactured by Nunc, Product No. 436006) at 100 μL per well, followed by being left to stand at 4° C. overnight. The solution was removed, and 200 μL of 10 mM ethanolamine/0.1 M sodium carbonate buffer (pH 9.6) was added to each well, followed by being left to stand at room temperature for 1 hour. The solution was removed, and each well was washed with PBS containing 0.5% Tween 20 (PBST) twice to prepare a peptide-immobilized plate. For confirmation, this plate was also provided with a well to which the CAPRIN-1 protein was immobilized in accordance with the method described above. Rabbit anti-CAPRIN-1 monoclonal antibody #1 purified to a concentration of 0.1 ug/mL by a usual method was added to the plate at an amount of 50 μL per well, followed by shaking at room temperature for 1 hour. The solution was removed, and each well was washed with PBST three times. […] The absorbance was measured at 450 nm and 595 nm with an absorption spectrometer. […]

Test [6] concerns the target T4, polypeptide set forth in SEQ ID NO: 430. Kind of test: ELISA as in Example 13(1), purified antibody.

Where only a bound is given, the exact number is not on record here.

B1: mouse monoclonal antibody #5 (antibody, V domains shown)
VH: DAELVKPGASVKISCKASGYTFTDHSIHWVQQKPEQGLEWIGYISPGNGNIKYNEKFKGKATLTADKSSSTAYMQLNSLTSEDSAVYFCKRSLGRGGPYYFDYWGQGTTVTVSS
VL: DIVLTQAAPSLPVTPGESVSISCRSSKSLLHSNGNTYLYWFLQRPGQSPQLLIYRMSNLASGVPDRFSGSGSGTAFTLRISRVEAEDVGVYYCMQHREYPVTFGSGPN
notes: mouse hybridoma antibody; also called anti-CAPRIN-1 mouse monoclonal antibody #5; anti-CAPRIN-1 monoclonal antibody #5
On to B1, for which the “cytotoxicity (ADCC, 51Cr release) on TGBC14TKB, human NK cells” value in test [1] is not below 15%. For the same molecule, the binding result in test [2] and in test [3] was “binds” each time. For the same molecule, the “rate of increase in mean fluorescence intensity over control” value in test [4] was not below 20%.

B2: rabbit anti-CAPRIN-1 monoclonal antibody #1 (antibody, V domains shown)
VH: QSLEESGGDLVKPGASLTLTCTASGFSFSGSYYMSWVRQAPGKGLEWIAYIYIGDGVTAYANWAKGRFTISKASSTTVTLQMTSLTAADTATYFCARGNKLWGPGTLVTVSS
VL: DVVMTQTPASVEAAVGGTVTIKCQASQSISSYLAWYQQKPGQPPKRLIYDASNLDSGVPSRFKGSGSGTDFTITISDLECADAATYYCQCTAVSSATIYGNAFGGGTEVVVK
notes: rabbit hybridoma antibody
Turning to B2, the binding result in test [5] is “binds”.

B3: human-rabbit chimeric anti-CAPRIN-1 antibody #1 (antibody, V domains shown)
VH: B2 VH
VL: B2 VL
notes: also called human-rabbit chimeric anti-CAPRIN-1 monoclonal antibody #1
B3: in test [6], the binding result is listed as “binds”.

For the origin of these results see patent US20150299314A1 (TORAY INDUSTRIES, published 2015).
